Square brackets hold non-standard residues; d marks the D form. Ends that are not written are not given here. * marks the point of attachment. MTSL = spin label, CC1(C)C=C(CS*)C(C)(C)N1[O]; pS = N[C@@H](COP(=O)(O)O)C(=O)O
B1: occludin 383–412^S408D unstructured region peptide, MTSL-labelled at C409 (peptide, UniProt Q16625 383-412, looked up)
chain: AKGRAGRSKRTEQDHYETDYTTGGEDC(MTSL)DEL
B2: occludin 383–412^S408A unstructured region peptide, MTSL-labelled at C409 (peptide, UniProt Q16625 383-412, looked up)
chain: AKGRAGRSKRTEQDHYETDYTTGGEAC(MTSL)DEL
B3: synthetic occludin 383–412 peptide phosphorylated at S408 (peptide)
peptide: AKGRAGRSKRTEQDHYETDYTTGGE[pS]CDEL
B4: synthetic occludin 383–412 peptide, nonphosphorylated (peptide)
peptide: AKGRAGRSKRTEQDHYETDYTTGGESCDEL

Key:
[1] = biological target: T1, occludin 413–522 α-helical bundle (NMR construct with the N-terminal extension GPLGS) (human, UniProt Q16625 413-522); test: NMR paramagnetic relaxation enhancement
T1 sequence: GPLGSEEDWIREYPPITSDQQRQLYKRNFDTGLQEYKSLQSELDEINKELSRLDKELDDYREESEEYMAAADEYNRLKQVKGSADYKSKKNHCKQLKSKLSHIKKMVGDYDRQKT

[2] = biological target: T2, fluorescent-tagged His-tagged occludin 413–522 (human, UniProt Q16625 413-522, fluorescent label from the MonolithNT His-Tag Labeling Kit (NanoTemper)); test: MST
T2 sequence (looked up): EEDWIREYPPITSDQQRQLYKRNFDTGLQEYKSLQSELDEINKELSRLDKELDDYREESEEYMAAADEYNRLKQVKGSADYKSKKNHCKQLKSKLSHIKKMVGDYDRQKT

Binder	binding result [1]	Kd [2] [µM]
B1	binds	
B2	binds	
B3		37 ± 15
B4		175 ± 27

Source: paper PMC9407527 (Proceedings of the National Academy of Sciences of the …, 2022)
